According to PMC11151058, “The Transpeptidase Sortase A Binds Nucleic Acids and Mediates Mammalian Cell Labeling”:

What was measured:
mgSrtA [1] = target: T1, mgSrtA (Staphylococcus aureus, UniProt Q2FV99 60-206, P94R;D124G;D160N;D165A;Y187L;E189R;K190E;K196T;F200L); assay: band shift, SDS western blot; 50 uM oligo; Western-blot shift: 10 uM protein, 20 uM oligo, HBSS, 37 C, 30 min (Fig 3D 10 min); EMSA: HBSS, 37 C, 30 min, 6% PAGE; MST: 20 mM HEPES, 300 mM NaCl, pH 6.8, 0.1% Tween 20, 25 C; conditions: protein: recombinant; tags: N-terminal 6xHis (pET-28a); label: 5'Biotin
mgSrtA-L200F = mgSrtA-L200F (Staphylococcus aureus, UniProt Q2FV99 60-206, P94R;D124G;D160N;D165A;Y187L;E189R;K190E;K196T); assay: band shift, SDS western blot; Western-blot shift: 10 uM protein, 20 uM oligo, HBSS, 37 C, 30 min (Fig 3D 10 min); EMSA: HBSS, 37 C, 30 min, 6% PAGE; MST: 20 mM HEPES, 300 mM NaCl, pH 6.8, 0.1% Tween 20, 25 C; conditions: protein: recombinant; tags: N-terminal 6xHis (pET-28a); label: 5'Biotin, 3'FITC
5M SrtA = 5M SrtA (Staphylococcus aureus, UniProt Q2FV99 60-206, P94R;D160N;D165A;K190E;K196T); assay: as above; conditions: protein: recombinant; tags: N-terminal 6xHis (pET-28a); label: 5'Biotin, 3'FITC
mgSrtA-triple = mgSrtA-triple (Staphylococcus aureus, UniProt Q2FV99 60-206, P94R;H120A;D124G;D160N;D165A;C184A;Y187L;E189R;K190E;K196T;R197A;F200L); assay: as above; conditions: protein: recombinant; tags: N-terminal 6xHis (pET-28a); label: 5'Biotin, 3'FITC
mgSrtA [2] = target: T1, mgSrtA; assay: as above; conditions: protein: recombinant, tags: N-terminal 6xHis (pET-28a), label: 5'Biotin
WTSrtA = WTSrtA (Staphylococcus aureus, UniProt Q2FV99 60-206); assay: as above; conditions: protein: recombinant; tags: N-terminal 6xHis (pET-28a); label: 5'Biotin, 3'FITC
mgSrtA-H120A = mgSrtA-H120A (Staphylococcus aureus, UniProt Q2FV99 60-206, P94R;H120A;D124G;D160N;D165A;Y187L;E189R;K190E;K196T;F200L); assay: as above; conditions: protein: recombinant; tags: N-terminal 6xHis (pET-28a); label: 5'Biotin, 3'FITC
mgSrtA-C184A = mgSrtA-C184A (Staphylococcus aureus, UniProt Q2FV99 60-206, P94R;D124G;D160N;D165A;C184A;Y187L;E189R;K190E;K196T;F200L); assay: as above; conditions: protein: recombinant; tags: N-terminal 6xHis (pET-28a); label: 5'Biotin, 3'FITC
mgSrtA-mono = mgSrtA-mono (Staphylococcus aureus, UniProt Q2FV99 60-206, P94R;D124G;N132A;K137A;Y143A;D160N;D165A;Y187L;E189R;K190E;K196T;F200L); assay: as above; conditions: protein: recombinant; tags: N-terminal 6xHis (pET-28a); label: 5'Biotin, 3'FITC
mgSrtA-R197A = mgSrtA-R197A (Staphylococcus aureus, UniProt Q2FV99 60-206, P94R;D124G;D160N;D165A;Y187L;E189R;K190E;K196T;R197A;F200L); assay: as above; conditions: protein: recombinant; tags: N-terminal 6xHis (pET-28a); label: 5'Biotin, 3'FITC
mgSrtA [3] = target: T1, mgSrtA; assay: band shift, SDS western blot; 1 uM oligo; Western-blot shift: 10 uM protein, 20 uM oligo, HBSS, 37 C, 30 min (Fig 3D 10 min); EMSA: HBSS, 37 C, 30 min, 6% PAGE; MST: 20 mM HEPES, 300 mM NaCl, pH 6.8, 0.1% Tween 20, 25 C; conditions: protein: recombinant; tags: N-terminal 6xHis (pET-28a); label: 5'Biotin
mgSrtA [4] = target: T1, mgSrtA; assay: band shift, SDS western blot; 20 uM oligo; Western-blot shift: 10 uM protein, 20 uM oligo, HBSS, 37 C, 30 min (Fig 3D 10 min); EMSA: HBSS, 37 C, 30 min, 6% PAGE; MST: 20 mM HEPES, 300 mM NaCl, pH 6.8, 0.1% Tween 20, 25 C; conditions: protein: recombinant; tags: N-terminal 6xHis (pET-28a); label: 5'Biotin

## GGGGGG (ssDNA) [6G]
mgSrtA [1]
  binding result: binds

## GGGG (ssDNA) [BF 4G]
mgSrtA-L200F
  binding result: binds
5M SrtA
  binding result: binds
mgSrtA-triple
  binding result: binds
mgSrtA [2]; 3'FITC
  binding result: binds
WTSrtA
  binding result: binds
mgSrtA-H120A
  binding result: binds
mgSrtA-C184A
  binding result: binds
mgSrtA-mono
  binding result: binds
mgSrtA-R197A
  binding result: binds

## GGGGCGGGGTGGGGCGGGGT (ssDNA) [20G]
mgSrtA [3]
  binding result: binds

## GGGG (ssDNA) [4G (Fig S17)]
mgSrtA [2]
  binding result: binds

## GGGGGGGG (ssDNA) [8G]
mgSrtA [4]
  binding result: binds

## GGGGCGGGGTGGGGC (ssDNA) [15G]
mgSrtA [3]
  binding result: binds
